Experiment [1] deals with T1, human CD28 expressed on the cell surface (human, UniProt P10747 19-220).
T1 construct: whole, on cells; also called CD28 positive cells; PCD28.1.s2.1 cells
Briefly: flow cytometry on PCD28.1.s2.1 cells expressing human CD28. For orientation: Flow cytometry measures light scatter and fluorescence of single cells or particles in a stream.
Procedure: Non-adherent CD28 expressing cells (PCD28.1.s2.1) were used for this assay format. […] All incubations were carried out on ice. […] After washing twice in binding buffer, bound fusion proteins were detected with a 1:2000 dilution of a goat anti-human polyclonal antibody labeled with FITC (Flourescein isothiocyanate, Southern Biotech).

Experiment [2] deals with T2, CTLA4-Ig (human, UniProt P16410 36-161).
T2 construct: also called CTLA4-Fc; not shown: human IgG1 heavy chain Fc region (hinge, CH2, CH3) of vector COSFcLink
Briefly: isothermal titration calorimetry, in solution, 37° C. (In general: ITC needs no label: the signal is the heat of the interaction.)

The target in experiment [3] is T2, CTLA4-Ig. Nature of the experiment: isothermal titration calorimetry at 44° C., Kd corrected to 37° C. by the van't Hoff equation.
Experiment [4] deals with T2, CTLA4-Ig. Briefly: isothermal titration calorimetry, in solution, 44° C.
In experiment [5] the target is T2, CTLA4-Ig. Briefly: isothermal titration calorimetry, Kd at 37° C., measured at 37° C.

T2 sequence (P16410 other isoform, or with tags, fused parts or gaps): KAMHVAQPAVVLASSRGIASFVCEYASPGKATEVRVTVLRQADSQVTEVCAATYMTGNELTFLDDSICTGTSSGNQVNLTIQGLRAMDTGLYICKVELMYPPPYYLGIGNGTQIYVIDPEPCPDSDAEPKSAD

B1: CD86-Ig (Fc fusion)
chain: APLKIQAYFNETADLPCQFANSQNQSLSELVVFWQDQENLVLNEVYLGKEKFDSVHSKYMGRTSFDSDSWTLRLHNLQIKDKGLYQCIIHHKKPTGMIRIHQMNSELSVLANFSQPEIVPISNITENVYINLTCSSIHGYPEPKKMSVLLRTKNSTIEYDGIMQKSQDNVTELYDVSISLSVSFPDVTSNMTIFCILETDKTRLLSSPFSIELEDPQPPPDHEPKSADKTHTCPPCP
notes: Mature N-terminus LKIQ-, junction PPPDHepksa; also called B7.2-Ig; monomeric CD86-Ig; not shown: human IgG1 heavy chain Fc region (hinge, CH2, CH3) of vector COSFcLink
Consider B1, for which the binding result in experiment [1] is “no binding”. Besides, the Kd (in general, the concentration at which binding is half-saturated) with CTLA4-Ig [2] was 38 nM; in the experiment with CTLA4-Ig [3], 22 nM; in the experiment with CTLA4-Ig [4], 71 nM; with CTLA4-Ig [5], 40 nM. Besides, the “Molar Ratio (CTLA4-Ig per construct)” value with CTLA4-Ig [2] was 0.8; in the experiment with CTLA4-Ig [4], 0.79. Besides, the ΔH in the experiment with CTLA4-Ig [2] was -33 kcal/mol; in the experiment with CTLA4-Ig [4], -34 kcal/mol.

The record behind these values is patent publication US20020147326A1 (GlaxoSmithKline, published 2002).
